Test results from patent US5906819, “Rho target protein Rho-kinase” (Kirin Beer Kabushiki Kaisha, dated 1999).

How the values were obtained:
GST = GST (Schistosoma japonicum (Blood fluke), UniProt P08515 = GST); assay: GST-small G-protein glutathione-Sepharose affinity column, SDS-PAGE and silver staining
GTPγS·GST-H-Ras = GTPγS·GST-H-Ras (Homo sapiens (Human), UniProt P01112); assay: GST-small G-protein glutathione-Sepharose affinity column
GTPγS·GST-Rac1 = GTPγS·GST-Rac1 (Homo sapiens (Human), UniProt P63000); assay: as above

B1: bovine Rho-kinase (enzyme)
chain: MSRPPPTGKMPGAPEAVSGDGAGASRQRKLEALIRDPRSPINVESLLDGLNPLVLDLDFPALRKNKNIDNFLNRYEKIVKKIRGLQMKAEDYDVVKVIGRGAFGEVQLVRHKASQKVYAMKLLSKFEMIKRSDSAFFWEERDIMAFANSPWVVQLFCAFQDDKYLYMVMEYMPGGDLVNLMSNYDVPEKWAKFYTAEVVLALDAIHSMGLIHRDVKPDNMLLDKHGHLKLADFGTCMKMDETGMVHCDTAVGTPDYISPEVLKSQGGDGYYGRECDWWSVGVFLFEMLVGDTPFYADSLVGTYSKIMDHKNSLCFPEDAEISKHAKNLICAFLTDREVRLGRNGVEEIKQHPFFKNDQWNWDNIRETAAPVVPELSSDIDSSNFDDIEDDKGDVETFPIPKAFVGNQLPFIGFTYYRENLLLSDSPSCKENDSIQSRKNEESQEIQKKLYTLEEHLSTEIQAKEELEQKCKSVNTRLEKVAKELEEEITLRKNVESTLRQLEREKALLQHKNAEYQRKADHEADKKRNLENDVNSLKDQLEDLKKRNQNSQISTEKVNQLQRQLDETNALLRTESDTAARLRKTQAESSKQIQQLESNNRDLQDKNCLLETAKLKLEKEFINLQSVLESERRDRTHGSEIINDLQGRISGLEEDVKNGKILLAKVELEKRQLQERFTDLEKEKNNMEIDMTYQLKVIQQSLEQEETEHKATKARLADKNKIYESIEEAKSEAMKEMEKKLSEERTLKQKVENLLLEAEKRCSILDCDLKQSQQKINELLKQKDVLNEDVRNLTLKIEQETQKRCLTQNDLKMQTQQVNTLKMSEKQLKQENNHLLEMKMSLEKQNAELRKERQDADGQMKELQDQLEAEQYFSTLYKTQVRELKEECEEKTKLCKELQQKKQELQDERDSLAAQLEITLTKADSEQLARSIAEEQYSDLEKEKIMKELEIKEMMARHKQELTEKDATIASLEETNRTLTSDVANLANEKEELNNKLKEAQEQLSRLKDEEISAAAIKAQFEKQLLTERTLKTQAVNKLAEIMNRKEPVKRGNDTDVRRKEKENRKLHMELKSEREKLTQQMIKYQKELNEMQAQIAEESQIRIELQMTLDSKDSDIEQLRSQLQALHIGLDSSSIGSGPGDTEADDGFPESRLEGWLSLPVRNNTKKFGWVKKYVIVSSKKILFYDSEQDKEQSNPYMVLDIDKLFHVRPVTQTDVYRADAKEIPRIFQILYANEGESKKEQEFPVEPVGEKSNYICHKGHEFIPTLYHFPTNCEACMKPLWHMFKPPPALECRRCHIKCHKDHMDKKEEIIAPCKVYYDISSAKNLLLLANSTEEQQKWVSRLVKKIPKKPPAPDPFARSSPRTSMKIQQNQSIRRPSRQLAPNKPS
Q: Does B1 bind (GST)?
A: no binding (tested: 24 nmol on the column)

Q: Does B1 bind (GTPγS·GST-H-Ras)?
A: no binding

Q: Does B1 bind (GTPγS·GST-Rac1)?
A: no binding
